± gives the standard deviation of the averaged measurements.
System: ATP
Assay: switch fluorescence ratio, 500 uM ATP over buffer (Cy3 cluster intensity, sum of 5 cycles each) (fold (ratio)); higher = stronger signal-on switching upon ATP binding; sequences stand for … in TCGTCGGCAGCGTCAGATGTGTATAAGAGACAGTTTTTTTTTTTTTTTTTTTTTTTTT…TC
Conditions: aptamer strand: ATP DNA aptamer (quencher-CACCTGGGGGAGTATTGCGGAGGAAGG + anchor), 100 nM annealed; ATP concentration: 500 uM
Outline: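 The fluorescence ratio divides summed target-cycle Cy3 intensity by summed buffer-cycle Cy3 intensity for each cluster and is averaged per switch-domain sequence. Cy3-labelled switching-strand clusters on a modified Illumina MiSeq flow-cell were annealed to 100 nM quencher-labelled ATP aptamer, then imaged in selection buffer and again after 15 min with 500 uM ATP at 22 °C. Five such cycles were run, with NaOH stripping and re-annealing between them, and clusters outside 100-1000 RFU were excluded.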
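Also: ATP exposure 15 min at 22 °C before imaging.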

| Sequence | switch fluorescence ratio |
| --- | --- |
| TTAATAGTGA | 0.973 ± 0.021 |
| TTAATATAGG | 0.999 ± 0.011 |
| TTAATCCATG | 0.988 ± 0.011 |
| TTAATCTGCG | 1.01 ± 0.032 |
| TTAATGAATA | 1.01 ± 0.035 |
| TTAATGGGCG | 1.09 ± 0.18 |
| TTAATGGGTT | 1.09 ± 0.14 |
| TTAATGTGGA | 0.993 ± 0.046 |
| TTAATTATTT | 0.998 ± 0.029 |
| TTAATTGTAT | 0.992 ± 0.034 |
| TTAATTGTGT | 0.993 ± 0.0095 |
| TTAATTTAAG | 0.992 ± 0.038 |
| TTAATTTGGG | 1.01 ± 0.024 |
| TTAATTTGTG | 0.986 ± 0.017 |
| TTAATTTTAT | 0.991 ± 0.015 |
| TTACAAGGAT | 0.997 ± 0.012 |
| TTACAAGGGT | 0.973 ± 0.023 |
| TTACAATCAA | 0.999 ± 0.047 |
| TTACACGTAA | 1.31 ± 0.019 |
| TTACACTGTG | 1.001 ± 0.0054 |
| TTACAGTTCG | 1.013 ± 0.0082 |
| TTACATAAGG | 1.006 ± 0.0048 |
| TTACATCGGA | 0.982 ± 0.03 |
| TTACATTGTT | 1.06 ± 0.11 |
| TTACCAGGGG | 1.4 ± 0.25 |
| TTACCATCGG | 1.01 ± 0.024 |

| Sequence | switch fluorescence ratio |
| --- | --- |
| TTACCATGGA | 0.995 ± 0.0021 |
| TTACCCGGAA | 1.9 ± 0.048 |
| TTACCCTAGG | 1.14 ± 0.024 |
| TTACCGGATT | 0.993 ± 0.022 |
| TTACCGGGGG | 1.042 ± 0.0095 |
| TTACCGGGGT | 0.995 ± 0.035 |
| TTACCGTCGC | 1.037 ± 0.0027 |
| TTACCTACTT | 1.17 ± 0.12 |
| TTACCTTTGG | 1.005 ± 0.0087 |
| TTACGCAACC | 2.91 ± 0.58 |
| TTACGCCGTT | 0.9446 ± 0.0049 |
| TTACGCTATT | 3.4 ± 2.4 |
| TTACGGGCGC | 0.9684 ± 0.0086 |
| TTACGGGCTT | 0.989 ± 0.027 |
| TTACGGGGCC | 0.977 ± 0.049 |
| TTACGGGGTG | 1.02 ± 0.019 |
| TTACGGTAGG | 1.01 ± 0.075 |
| TTACGGTGGC | 0.989 ± 0.045 |
| TTACGTCCGT | 1.04 ± 0.02 |
| TTACGTGAGG | 1.02 ± 0.045 |
| TTACGTTAAT | 1.18 ± 0.095 |
| TTACTACCGG | 1.04 ± 0.012 |
| TTACTCGCAT | 2.3 ± 1.2 |
| TTACTCTGGG | 1.003 ± 0.0032 |
| TTACTGCGTA | 1.02 ± 0.015 |
| TTACTTATTA | 1.07 ± 0.018 |

| Sequence | switch fluorescence ratio |
| --- | --- |
| TTACTTGATG | 1.02 ± 0.031 |
| TTACTTGCGT | 1.06 ± 0.035 |
| TTACTTTAGG | 1.05 ± 0.023 |
| TTACTTTCCG | 1.11 ± 0.019 |
| TTACTTTGAA | 1.01 ± 0.029 |
| TTAGAAAAAG | 0.9811 ± 0.0052 |
| TTAGAAATGT | 1.42 ± 0.84 |
| TTAGAACAAG | 1.01 ± 0.019 |
| TTAGAACTGA | 1.02 ± 0.023 |
| TTAGAAGCCT | 1.14 ± 0.02 |
| TTAGAAGGTA | 0.995 ± 0.035 |
| TTAGAATGGG | 1.12 ± 0.14 |
| TTAGAATGTA | 0.99 ± 0.023 |
| TTAGAGAGGA | 0.987 ± 0.026 |
| TTAGAGGCAG | 0.967 ± 0.025 |
| TTAGAGGCGC | 1.035 ± 0.0095 |
| TTAGAGGGAG | 1.03 ± 0.042 |
| TTAGAGGGCA | 0.99086 ± 0.00097 |
| TTAGAGGTAA | 1.01 ± 0.019 |
| TTAGAGTACG | 1.036 ± 0.0075 |
| TTAGATAGTA | 1.01 ± 0.043 |
| TTAGATGAAG | 0.987 ± 0.031 |
| TTAGATGGGG | 1.01 ± 0.11 |
| TTAGATTACG | 0.998 ± 0.021 |
| TTAGCATATA | 2.42 ± 1.9 |
| TTAGCATGAT | 1.14 ± 0.2 |

| Sequence | switch fluorescence ratio |
| --- | --- |
| TTAGCCACTT | 1.06 ± 0.066 |
| TTAGCCCTCA | 0.981 ± 0.014 |
| TTAGCGACGG | 0.992 ± 0.03 |
| TTAGCGGGTT | 0.988 ± 0.048 |
| TTAGCGGT | 1.004 ± 0.0093 |
| TTAGCTTTGA | 0.992 ± 0.022 |
| TTAGGAGCTT | 1 ± 0.014 |
| TTAGGATAGG | 1.005 ± 0.0021 |
| TTAGGCACGC | 1.01 ± 0.023 |
| TTAGGCGCCC | 0.981 ± 0.029 |
| TTAGGCGGGG | 1 ± 0.061 |
| TTAGGCGTGG | 1.017 ± 0.006 |
| TTAGGCTAAT | 1.02 ± 0.025 |
| TTAGGCTGCG | 1.06 ± 0.1 |
| TTAGGGACAA | 1.039 ± 0.0064 |
| TTAGGGAGAG | 0.996 ± 0.016 |
| TTAGGGATGG | 0.992 ± 0.023 |
| TTAGGGCTTG | 0.992 ± 0.039 |
| TTAGGGGAAT | 1.43 ± 0.75 |
| TTAGGGGAGG | 0.9925 ± 0.0098 |
| TTAGGGGCGC | 0.985 ± 0.014 |
| TTAGGGGGAG | 1.03 ± 0.065 |
| TTAGGGGGCT | 1 ± 0.033 |
| TTAGGGGGGA | 0.987 ± 0.032 |
| TTAGGGGGGC | 1.02 ± 0.053 |
| TTAGGGGGGG | 1 ± 0.052 |

| Sequence | switch fluorescence ratio |
| --- | --- |
| TTAGGGGGTA | 1.12 ± 0.27 |
| TTAGGTAACT | 1.01 ± 0.019 |
| TTAGGTCTCT | 0.977 ± 0.025 |
| TTAGGTTATC | 1.01 ± 0.016 |
| TTAGGTTCTA | 1.08 ± 0.12 |
| TTAGGTTGTT | 1.01 ± 0.013 |
| TTAGTAGAGT | 1 ± 0.013 |
| TTAGTATGGA | 0.9837 ± 0.0013 |
| TTAGTATTAC | 1.05 ± 0.029 |
| TTAGTCAATG | 0.999 ± 0.022 |
| TTAGTCATTC | 0.99 ± 0.038 |
| TTAGTCCCGC | 1.066 ± 0.0024 |
| TTAGTCGATA | 0.9767 ± 0.0021 |
| TTAGTCGGAG | 0.981 ± 0.01 |
| TTAGTCTTGA | 0.9796 ± 0.0028 |
| TTAGTGACA | 1.042 ± 0.0095 |
| TTAGTGACGT | 1.037 ± 0.0016 |
| TTAGTGATGT | 1.03 ± 0.0097 |
| TTAGTGGGTT | 1.01 ± 0.024 |
| TTAGTGTTTG | 1.02 ± 0.006 |
| TTAGTTATAT | 1.013 ± 0.0099 |
| TTAGTTATTA | 1.017 ± 0.0041 |
| TTAGTTGGGG | 1.01 ± 0.032 |
| TTAGTTGTAG | 0.993 ± 0.026 |
| TTAGTTTGGA | 0.959 ± 0.04 |
| TTAGTTTGGG | 1.02 ± 0.016 |

| Sequence | switch fluorescence ratio |
| --- | --- |
| TTAGTTTTTA | 0.991 ± 0.022 |
| TTATAAATCT | 1.008 ± 0.0092 |
| TTATAACCTG | 1.02 ± 0.037 |
| TTATAACGTA | 1.07 ± 0.044 |
| TTATAATTAT | 1.09 ± 0.092 |
| TTATACTGGG | 0.992 ± 0.012 |
| TTATAGATAT | 0.994 ± 0.015 |
| TTATAGGCAG | 0.987 ± 0.01 |
| TTATAGGCGT | 1 ± 0.02 |
| TTATAGGTGC | 1.11 ± 0.022 |
| TTATAGGTTA | 1.02 ± 0.015 |
| TTATATACCA | 1.03 ± 0.079 |
| TTATATATTT | 0.993 ± 0.015 |
| TTATATCAAT | 0.9999 ± 0.0041 |
| TTATATCGTT | 0.998 ± 0.017 |
| TTATATCTTG | 1.0191 ± 0.00086 |
| TTATATGGAG | 0.979 ± 0.034 |
| TTATATGGTG | 0.98 ± 0.041 |
| TTATATGTGA | 1.04 ± 0.011 |
| TTATATTCTG | 0.9893 ± 0.0041 |
| TTATATTTCG | 1 ± 0.032 |
| TTATCAATAA | 1.42 ± 0.57 |
| TTATCATAGG | 1.01 ± 0.012 |
